Assay results published in publication PMC3695727.

Target: Orai expressed in cell membranes (Drosophila melanogaster) (UniProt Q9U6B8)
Assay: cross-linking

## Orai expressed in cell membranes (from UniProt Q9U6B8 1-351) (natural protein)
  stoichiometry N: 6
